Measurements published in the supplement of paper PMC7877785.
± gives the uncertainty stated by the source.

Test: self-splicing fitness, log relative to wild type (ln ratio); higher = more splicing; Tetrahymena group I intron in knt gene, E. coli kanamycin selection, DiMSum; sequences stand for … in CUCUCU…GGAGGGAAAAGUUAUCAGGCAUGCACCUGGUAGCUAGUCUUUAAACCAAUAGAUUGCAUCGGUUUAAAAGGCAAGACCGUCAAAUUGCGGGAAAGGGGUCAACAGCCGUUCAGUACCAAGUCUCAGGGGAAACUUUGAGAUGGCCUUGCAAAGGGUAUGGUAAUAAGCUGACGGACAUGGUCCUAACCACGCAGCCAAGUCCUAAGUCAACAGAUCUUCUGUUGAUAUGGAUGCAGUUCACAGACUAAAUGUCGGUCGGGGAAGAUGUAUUCUUCUCAUAAGAUAUAGUCGGACCUCUCCUUAAUGGGAGCUAGCGGAUGAAGUGAUGCAACACUGGAGCCGCUGGGAACUAAUUUGUAUGCGAAAGUAUAUUGAUUAGUUUUGGAGUACUCGUGGUCG
Outline: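 DiMSum derived fitness as the error-weighted combination of fold changes across replicates, kanamycin versus no kanamycin, normalised to wild type. E. coli BL21(DE3) held the library, which randomised all eight P1ex-region intron nucleotides within the knt kanamycin-resistance gene on pET-22b(+). Six replicate transformations grew overnight at 37°C or 30°C on LB agar with or without 25 μg/mL kanamycin, also containing 100 μg/mL carbenicillin, 50 μM IPTG and 0.2% rhamnose, and pooled colonies were amplicon-sequenced on an Illumina HiSeq 2500.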

Sequence	self-splicing fitness (ln) (30 °C)	self-splicing fitness (ln) (37 °C)
GGCUAGCAAUAUUACGCUAG	-2.5 ± 0.3	-1.45 ± 0.34
GGCUAGCAAUAUUACGGACG	0.655 ± 0.093	0.211 ± 0.11
GGCUAGCAAUAUUACGGGUC	-2.91 ± 0.28	-2.26 ± 0.24
GGCUAGCAAUAUUACGGUCU	-2.92 ± 0.44	-0.649 ± 0.21
GGCUAGCAAUAUUACGGUGC	-1.49 ± 0.19	-0.767 ± 0.2
GGCUAGCAAUAUUACGUCGC	-1.5 ± 0.28	-0.438 ± 0.22
GGCUAGCAAUAUUACGUGCG	-0.139 ± 0.099	0.371 ± 0.15
GGCUAGCAAUAUUACGUUCG	-0.933 ± 0.097	-0.427 ± 0.12
GGGAAGCAAUAUUACGAAAG		-2.48 ± 0.41
GGGAAGCAAUAUUACGAACU	-2.22 ± 0.26	1.13 ± 0.33
GGGAAGCAAUAUUACGAGUC	-2.56 ± 0.17	-1.36 ± 0.16
GGGAAGCAAUAUUACGAUAU	-0.722 ± 0.15	-0.709 ± 0.23
GGGAAGCAAUAUUACGAUCC	-2.12 ± 0.22	-1.11 ± 0.35
GGGAAGCAAUAUUACGAUUC	-0.445 ± 0.14	-0.851 ± 0.16
GGGAAGCAAUAUUACGCAAC	-3.36 ± 0.17	-1.03 ± 0.18
GGGAAGCAAUAUUACGCAUA	-2.35 ± 0.18	-1.25 ± 0.14
GGGAAGCAAUAUUACGCCGA	-1.78 ± 0.17	-0.238 ± 0.12
GGGAAGCAAUAUUACGCUAC	-2.26 ± 0.3	-1.84 ± 0.46
GGGAAGCAAUAUUACGCUGU	-2.38 ± 0.14	-1.45 ± 0.16
GGGAAGCAAUAUUACGGAAA	-1.4 ± 0.32	-1.41 ± 0.36
GGGAAGCAAUAUUACGGGGU		-2.7 ± 0.34
GGGAAGCAAUAUUACGGGUC	-2.67 ± 0.3	-2.08 ± 0.33
GGGAAGCAAUAUUACGGUGG	-3.18 ± 0.24	-2 ± 0.24
GGGAAGCAAUAUUACGUCUA	0.132 ± 0.17	-0.25 ± 0.18
GGGAAGCAAUAUUACGUCUU	-0.577 ± 0.09	-0.159 ± 0.13
GGGAAGCAAUAUUACGUGGC	-2.16 ± 0.36	-2.73 ± 0.31

Sequence	self-splicing fitness (ln) (30 °C)	self-splicing fitness (ln) (37 °C)
GGGCAGCAAUAUUACGAAAU	-1.42 ± 0.25	-1.24 ± 0.22
GGGCAGCAAUAUUACGAAGC	-1.64 ± 0.077	-0.939 ± 0.09
GGGCAGCAAUAUUACGAAUA		0.108 ± 0.17
GGGCAGCAAUAUUACGACCG	-0.512 ± 0.14	0.369 ± 0.17
GGGCAGCAAUAUUACGACGA	-0.804 ± 0.11	-0.442 ± 0.12
GGGCAGCAAUAUUACGACGC	0.36 ± 0.13	-0.0449 ± 0.18
GGGCAGCAAUAUUACGAGGC	-2.26 ± 0.29	-2.9 ± 0.37
GGGCAGCAAUAUUACGAUAA	-2.67 ± 0.21	-1.75 ± 0.18
GGGCAGCAAUAUUACGAUCC	-1.89 ± 0.42	-0.374 ± 0.37
GGGCAGCAAUAUUACGCAGA	-1.43 ± 0.095	-0.514 ± 0.1
GGGCAGCAAUAUUACGCAUG	-1.36 ± 0.1	-0.482 ± 0.12
GGGCAGCAAUAUUACGCCUU	-3.55 ± 0.29	-2.13 ± 0.22
GGGCAGCAAUAUUACGCGGU	-3.4 ± 0.19	-1.77 ± 0.27
GGGCAGCAAUAUUACGCUCU	-3.55 ± 0.44	
GGGCAGCAAUAUUACGGAAA	-2.77 ± 0.21	-2.26 ± 0.19
GGGCAGCAAUAUUACGGCUG	-2.27 ± 0.15	-1.8 ± 0.18
GGGCAGCAAUAUUACGGGCA	-2.14 ± 0.13	-0.0115 ± 0.09
GGGCAGCAAUAUUACGGGCU	-3.06 ± 0.14	-2.04 ± 0.18
GGGCAGCAAUAUUACGGUCU	-3.22 ± 0.26	-1.03 ± 0.24
GGGCAGCAAUAUUACGUCAC		-1.18 ± 0.42
GGGCAGCAAUAUUACGUCCC	-2.38 ± 0.46	
GGGCAGCAAUAUUACGUGUA	-2.19 ± 0.15	-0.515 ± 0.12
GGGCAGCAAUAUUACGUUCU	-2.35 ± 0.19	-1.2 ± 0.14
GGGCAGCAAUAUUACGUUGG	-3.05 ± 0.16	-1.65 ± 0.15
GGGGAGCAAUAUUACGACCG	-1.02 ± 0.41	
GGGGAGCAAUAUUACGAGGU	-3.44 ± 0.22	-1.82 ± 0.26

Sequence	self-splicing fitness (ln) (30 °C)	self-splicing fitness (ln) (37 °C)
GGGGAGCAAUAUUACGCAGG		-2.08 ± 0.46
GGGGAGCAAUAUUACGCAGU		-1.35 ± 0.36
GGGGAGCAAUAUUACGCAUU	-3.09 ± 0.27	-1.93 ± 0.21
GGGGAGCAAUAUUACGCCUU		-0.939 ± 0.35
GGGGAGCAAUAUUACGCGGA	-2.24 ± 0.32	-2.59 ± 0.36
GGGGAGCAAUAUUACGGAAC		-2.95 ± 0.26
GGGGAGCAAUAUUACGGGCA	-2.87 ± 0.34	-1.47 ± 0.26
GGGGAGCAAUAUUACGUAUC	-2.03 ± 0.2	-2.19 ± 0.37
GGGGAGCAAUAUUACGUCUC	-1.64 ± 0.4	
GGGGAGCAAUAUUACGUCUU	-1.91 ± 0.12	-0.96 ± 0.18
GGGGAGCAAUAUUACGUGGA	-2.04 ± 0.35	-2.48 ± 0.39
GGGGAGCAAUAUUACGUGUU	-3.92 ± 0.35	-2.29 ± 0.27
GGGGAGCAAUAUUACGUUCG	-2.01 ± 0.18	-0.941 ± 0.16
GGGUAGCAAUAUUACGAAGA	-1.72 ± 0.21	-1.62 ± 0.21
GGGUAGCAAUAUUACGAAUU	-1.04 ± 0.084	-0.438 ± 0.11
GGGUAGCAAUAUUACGACAG	-2.84 ± 0.2	-1.9 ± 0.21
GGGUAGCAAUAUUACGACCU	-2.3 ± 0.36	
GGGUAGCAAUAUUACGACGG		-1.18 ± 0.44
GGGUAGCAAUAUUACGAGCA	-0.991 ± 0.2	0.0569 ± 0.17
GGGUAGCAAUAUUACGAUUG	-1.63 ± 0.23	-2.13 ± 0.25
GGGUAGCAAUAUUACGCAUA		-0.676 ± 0.24
GGGUAGCAAUAUUACGCAUG	-1.68 ± 0.18	-2.73 ± 0.32
GGGUAGCAAUAUUACGCCAG		-2.81 ± 0.47
GGGUAGCAAUAUUACGCCAU	-2.4 ± 0.26	-1.32 ± 0.19
GGGUAGCAAUAUUACGCGGG	-2.2 ± 0.26	-2.42 ± 0.23
GGGUAGCAAUAUUACGGCGA	-0.516 ± 0.1	0.326 ± 0.12

Sequence	self-splicing fitness (ln) (30 °C)	self-splicing fitness (ln) (37 °C)
GGGUAGCAAUAUUACGGCUA	-0.886 ± 0.24	-1.24 ± 0.22
GGGUAGCAAUAUUACGGGAC	-2.79 ± 0.2	-0.633 ± 0.13
GGGUAGCAAUAUUACGGUCA	0.229 ± 0.18	-0.659 ± 0.18
GGGUAGCAAUAUUACGUAAA	-0.962 ± 0.13	-0.0364 ± 0.15
GGGUAGCAAUAUUACGUAGA	-1.89 ± 0.17	-0.619 ± 0.15
GGGUAGCAAUAUUACGUAUG		-1.84 ± 0.19
GGGUAGCAAUAUUACGUUCU	-0.416 ± 0.11	-0.164 ± 0.13
GGUAAGCAAUAUUACGAAAC	-1.48 ± 0.14	-0.179 ± 0.12
GGUAAGCAAUAUUACGAAGC	-3.07 ± 0.23	-0.664 ± 0.23
GGUAAGCAAUAUUACGAAGG	-3.74 ± 0.25	-2.84 ± 0.25
GGUAAGCAAUAUUACGACCU	-1.81 ± 0.18	-1.93 ± 0.24
GGUAAGCAAUAUUACGACUG	-0.569 ± 0.12	-0.0619 ± 0.14
GGUAAGCAAUAUUACGAGAA	-2.48 ± 0.42	-2.67 ± 0.37
GGUAAGCAAUAUUACGAGCG	0.017 ± 0.17	0.512 ± 0.17
GGUAAGCAAUAUUACGAUCA	-0.121 ± 0.1	-0.203 ± 0.1
GGUAAGCAAUAUUACGAUGA	-1.83 ± 0.26	-0.16 ± 0.2
GGUAAGCAAUAUUACGCAUU	-1.86 ± 0.14	-0.797 ± 0.12
GGUAAGCAAUAUUACGCGAC	-2.04 ± 0.16	-1.19 ± 0.2
GGUAAGCAAUAUUACGCGUC	-1.95 ± 0.2	0.649 ± 0.18
GGUAAGCAAUAUUACGCUAG	-4.34 ± 0.36	-2.92 ± 0.29
GGUAAGCAAUAUUACGGCCU	-2.34 ± 0.33	
GGUAAGCAAUAUUACGGCUC	-0.214 ± 0.14	-0.443 ± 0.16
GGUAAGCAAUAUUACGGUAU	-1.32 ± 0.074	-1.44 ± 0.11
